{
  "source": "patent US20220235109A1",
  "about": "(CUGENE, published 2022)",
  "binders": {"B1": {"name": "P-0837 (antibody, mouse IgG1, kappa)", "heavy 1": "EVQLQESGPGLVKPSQSLSLTCSVTGYSITSSYRWNWIRKFPGNRLEWMGYINSAGISNYNPSLKRRISITRDTSKNQFFLQVNSVTTEDAATYYCARSDNMGTTPFTYWGQGTLVTVSSAKTTPPSVYPLAPGSAAQTNSMVTLGCLVKGYFPEPVTVTWNSGSLSSGVHTFPAVLQSDLYTLSSSVTVPSSTWPSQTVTCNVAHPASSTKVDKKIVPRDCGCKPCICTVPEVSSVFIFPPKPKDVLTITLTPKVTCVVVAISKDDPEVQFSWFVDDVEVHTAQTKPREEQINSTFRSVSELPIMHQDWLNGKEFKCRVNSAAFGAPIEKTISKTKGRPKAPQVYTIPPPKKQMAKDKVSLTCMITNFFPEDITVEWQWNGQPAENYKNTQPIMKTDGSYFVYSKLNVQKSNWEAGNTFTCSVLHEGLHNHHTEKSLSHSPG", "heavy 2": "not shown", "light": "DIVMTQGTLPNPVPSGESVSITCRSSKSLLYSDGKTYLNWYLQRPGQSPQLLIYWMSTRASGVSDRFSGSGSGTDFTLKISGVEAEDVGIYYCQQGLEFPTFGGGTKLELKRTDAAPTVSIFPPSSEQLTSGGASVVCFLNNFYPRDINVKWKIDGSERQNGVLNSWTDQDSKDSTYSMSSTLTLTKDEYERHNSYTCEATHKTSTSPIVKSFNRNEC"}, "B2": {"name": "P-0838 (antibody, mouse IgG1, kappa)", "heavy 1": "B1 heavy 1", "heavy 2": "not shown", "light": "B1 light"}, "B3": {"name": "P-0782 (antibody, mouse IgG1, kappa)", "heavy 1": "B1 heavy 1", "heavy 2": "not shown", "light": "B1 light"}, "B4": {"name": "P-0732 (Fc fusion)", "chain": "DKTHTCPPCPAPEAAGAPSVFLFPPKPKDTLMISRTPEVTCVVVDVSHEDPEVKFNWYVDGVEVHNAKTKPREEQYNSTYRVVSVLTVLHQDWLNGKEYKCKVSNKALPAPIEKTISKAKGQPREPQVCTLPPSREEMTKNQVSLWCLVKGFYPSDIAVEWESNGQPENNYKTTPPVLDSDGSFFLYSKLTVDKSRWQQGNVFSCSVMHEALHNHYTQKSLSLSPGGGGSGGGSAPTSSSTKKTQLQLEHLLLDLQMILNGINNYKNPKLTRMLTFKFYMPKKATELKHLQCLEEELKRLEEVLNLAQSKNFHLRPRDLISNINVIVLELKGSETTFMCEYADETATIVEFLNRWITFIESIISTLT", "Fc": "DKTHTCPPCPAPEAAGAPSVFLFPPKPKDTLMISRTPEVTCVVVDVSHEDPEVKFNWYVDGVEVHNAKTKPREEQYNSTYRVVSVLTVLHQDWLNGKEYKCKVSNKALPAPIEKTISKAKGQPREPQVYTLPPCREEMTKNQVSLSCAVKGFYPSDIAVEWESNGQPENNYKTTPPVLDSDGSFFLVSKLTVDKSRWQQGNVFSCSVMHEALHNHYTQKSLSLSPG"}, "B5": {"name": "P-0765 (Fc fusion)", "chain 1": "B4 chain with F276A, R299A, E360Q", "chain 2": "B4 Fc", "notes": "knob chain carries the IL-2 variant; hole-Fc; monovalent; also called IL-2 F42A/P65A/S125I monovalent Fc fusion"}, "B6": {"name": "P-0767 (Fc fusion)", "chain 1": "B4 chain with F276A, E296H, R299P, E360Q", "chain 2": "B4 Fc", "notes": "knob chain carries the IL-2 variant; hole-Fc; monovalent; also called IL-2 F42A/E62H/S125I monovalent Fc fusion"}, "B7": {"name": "P-0766 (Fc fusion)", "chain 1": "B4 chain with F276A, E296A, R299P, E360Q", "chain 2": "B4 Fc", "notes": "knob chain carries the IL-2 variant; hole-Fc; monovalent; also called IL-2 F42A/E62A/S125I monovalent Fc fusion"}},
  "key": {"[1]": {"biological_target": "T1, IL-2Rα (CD25) on human CD4+ Treg cells (human, UniProt P01589 22-272)", "T1 sequence (looked up)": "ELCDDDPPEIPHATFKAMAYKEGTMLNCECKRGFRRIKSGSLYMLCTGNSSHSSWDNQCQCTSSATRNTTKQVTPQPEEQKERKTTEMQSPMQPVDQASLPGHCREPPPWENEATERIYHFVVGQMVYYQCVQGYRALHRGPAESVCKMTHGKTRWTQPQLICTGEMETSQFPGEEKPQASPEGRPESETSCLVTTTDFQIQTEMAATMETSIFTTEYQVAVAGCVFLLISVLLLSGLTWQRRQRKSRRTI", "experiment": "cell-based or functional assay"}, "[2]": {"biological_target": "T2, IL-2Rβγ on human CD8+ T cells, NK cells and CD4+ T cells (human, UniProt P14784 27-551; P31785 23-369)", "T2 sequence (looked up) 1": "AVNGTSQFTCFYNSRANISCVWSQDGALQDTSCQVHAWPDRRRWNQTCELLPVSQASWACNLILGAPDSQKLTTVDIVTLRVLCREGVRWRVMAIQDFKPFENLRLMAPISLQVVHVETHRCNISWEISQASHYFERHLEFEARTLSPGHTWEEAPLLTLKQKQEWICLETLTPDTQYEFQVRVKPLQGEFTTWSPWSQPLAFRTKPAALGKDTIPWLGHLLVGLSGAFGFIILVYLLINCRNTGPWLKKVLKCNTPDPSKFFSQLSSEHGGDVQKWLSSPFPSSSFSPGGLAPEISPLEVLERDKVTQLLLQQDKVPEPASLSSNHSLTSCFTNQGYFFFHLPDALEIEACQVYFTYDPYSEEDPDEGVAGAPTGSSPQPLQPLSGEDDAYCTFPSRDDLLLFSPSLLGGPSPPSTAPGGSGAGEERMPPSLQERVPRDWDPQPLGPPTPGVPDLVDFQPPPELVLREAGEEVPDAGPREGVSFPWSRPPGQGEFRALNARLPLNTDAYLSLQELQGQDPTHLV", "T2 sequence (looked up) 2": "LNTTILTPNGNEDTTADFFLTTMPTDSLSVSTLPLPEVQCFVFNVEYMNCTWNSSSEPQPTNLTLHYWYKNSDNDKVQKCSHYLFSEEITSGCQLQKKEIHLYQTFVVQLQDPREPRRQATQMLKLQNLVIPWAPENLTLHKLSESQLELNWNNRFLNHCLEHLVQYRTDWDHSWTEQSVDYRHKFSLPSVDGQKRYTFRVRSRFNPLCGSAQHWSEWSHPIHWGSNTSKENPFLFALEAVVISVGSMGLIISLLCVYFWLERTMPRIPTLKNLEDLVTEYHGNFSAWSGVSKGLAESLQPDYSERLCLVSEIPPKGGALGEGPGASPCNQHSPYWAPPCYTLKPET", "experiment": "cell-based or functional assay"}, "IL-2Rα-ECD": {"biological_target": "T3, IL-2Rα-ECD (human, UniProt P01589 22-240)", "T3 construct": "coated on ELISA plates at 0.1 µg/well; also called CD25; receptor subunit α", "T3 sequence": "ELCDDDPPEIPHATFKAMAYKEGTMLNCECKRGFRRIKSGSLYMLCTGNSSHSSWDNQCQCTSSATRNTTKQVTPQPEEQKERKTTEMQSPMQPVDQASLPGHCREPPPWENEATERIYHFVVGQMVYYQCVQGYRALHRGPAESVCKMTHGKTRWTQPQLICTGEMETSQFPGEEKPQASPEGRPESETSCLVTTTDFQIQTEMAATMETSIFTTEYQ", "experiment": "ELISA, IL-2Rα-ECD coated", "procedure": "A panel of IL-2 muteins was expressed as C-terminal fusions to the Fc homodimer of Fc heterodimer and screened for binding to IL-2Rα in enzyme-linked immunosorbent assay (ELISA). Briefly, IL-2Rα-ECD (SEQ ID NO: 5) was coated onto the wells of Nunc Maxisorp 96-well microplates at 0.1 μg/well. After overnight incubation at 4° C. and blocking with superblock (Thermo Fisher), 3-fold serial dilutions of IL-2 Fc fusion proteins starting at 100 nM were added to each well at 100 μI/well. Following one-hour incubation at room temperature, 100 μl/well of goat anti-human IgG Fc-HRP (1:5000 diluted in diluent) were added to each well and incubated at room temperature for 1 hour. Wells were thoroughly aspirated and washed three times with PBS/0.05% Tween-20 following each step. Finally, 100 μl TMB substrate was added to each well; the plate was developed at room temperature in the dark for 10 minutes, and 100 μl/well of stop solution (2N Sulfuric acid, Ricca Chemical) was added. Absorbance was determined at 450 nm and curves were fit using Prism software (Graph Pad)."}},
  "note": "Where a chain is given by its changes, count along the chain named. Names and notes keep the numbering of the source.",
  "data": [
    {"binder": "B1", "values": [
      {"measurement": "pSTAT5 EC50 in Treg cells (human PBMC)", "setting": "[1]", "result": 0.45, "unit": "pM"}
    ]},
    {"binder": "B2", "values": [
      {"measurement": "pSTAT5 EC50 in CD8+ T cells (human PBMC)", "setting": "[2]", "result": 4.6, "unit": "nM"},
      {"measurement": "pSTAT5 EC50 in Treg cells (human PBMC)", "setting": "[1]", "result": 0.36, "unit": "nM"},
      {"measurement": "pSTAT5 EC50 in Treg cells, fold against P-0837", "setting": "[1]", "result": 800, "unit": "fold"}
    ]},
    {"binder": "B3", "values": [
      {"measurement": "pSTAT5 EC50 in CD8+ T cells (human PBMC)", "setting": "[2]", "result": 4.6, "unit": "nM"},
      {"measurement": "pSTAT5 EC50 in Treg cells (human PBMC)", "setting": "[1]", "result": 4.5, "unit": "nM"},
      {"measurement": "pSTAT5 EC50 in Treg cells, fold against P-0837", "setting": "[1]", "result": 10000, "unit": "fold"}
    ]},
    {"binder": "B4", "values": [
      {"measurement": "Ki67 expression on human CD8+ T cells (EC50 against P-0704)", "setting": "[2]", "result": "> 100", "unit": "fold"}
    ]},
    {"binder": "B5", "values": [
      {"measurement": "Binding EC50 vs P-0689", "setting": "IL-2Rα-ECD", "result": "6.8 fold (ratio of EC50s)"}
    ]},
    {"binder": "B6", "values": [
      {"measurement": "Binding EC50 vs P-0689", "setting": "IL-2Rα-ECD", "result": "> 500 fold (ratio of EC50s)"},
      {"measurement": "binding result", "setting": "IL-2Rα-ECD", "result": "no binding"}
    ]},
    {"binder": "B7", "values": [
      {"measurement": "Binding EC50 vs P-0689", "setting": "IL-2Rα-ECD", "result": "> 500 fold (ratio of EC50s)"},
      {"measurement": "binding result", "setting": "IL-2Rα-ECD", "result": "no binding"}
    ]}
  ]
}
